The text below walks through data of US20170204402A1 (published 2017).

This experiment concerns the target T1, ACM335-FKBP hybrid protein (from plasmid pCm-ACM335-FKBP) (Bordetella pertussis, UniProt P62942 2-108).
T1 construct: also called ACM-FKBP
Description: HSACH in vivo complementation in E. coli DHM1 (data not shown).

B1: 3K1K-CaM fusion (VHH)
VHH: QVQLVESGGALVQPGGSLRLSCAASGFPVNRYSMRWYRQAPGKEREWVAGMSSAGDRSSYEDSVKGRFTISRDDARNTVYLQMNSLKPEDTAVYYCNVNVGFEYWGQGTQVTVSS
As for B1, the binding result was “no binding”.
